Reference: paper PMC8469222, “First Dye-Decolorizing Peroxidase from an Ascomycetous Fungus Secreted by Xylaria grammica” (Biomolecules, 2021)

T1: XgrDyP (Xylaria grammica, UniProt A0A439DJS1)
T1 construct: gene EKO27_g488; wild-type, natively secreted, purified from Xylaria grammica culture liquid (AEX, SEC, MonoQ); 49 kDa on SDS-PAGE; heme protein
T1 sequence (A0A439DJS1 1-493): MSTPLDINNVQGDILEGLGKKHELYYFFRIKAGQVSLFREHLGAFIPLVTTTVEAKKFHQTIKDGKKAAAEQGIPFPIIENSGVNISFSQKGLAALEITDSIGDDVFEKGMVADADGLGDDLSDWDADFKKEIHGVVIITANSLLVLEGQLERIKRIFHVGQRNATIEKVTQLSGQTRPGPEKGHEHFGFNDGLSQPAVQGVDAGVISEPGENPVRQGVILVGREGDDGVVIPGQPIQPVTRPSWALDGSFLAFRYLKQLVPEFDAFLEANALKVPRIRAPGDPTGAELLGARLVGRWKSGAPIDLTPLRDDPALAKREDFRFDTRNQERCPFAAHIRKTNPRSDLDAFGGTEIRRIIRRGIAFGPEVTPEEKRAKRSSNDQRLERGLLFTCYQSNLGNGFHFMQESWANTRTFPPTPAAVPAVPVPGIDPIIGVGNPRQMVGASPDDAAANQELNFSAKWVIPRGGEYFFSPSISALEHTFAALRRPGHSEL


Legend:
XgrDyP = target: T1, XgrDyP; assay: spectrophotometric decolorization at […] nm, Lineweaver-Burk; type: biochemical; details: apparent; 50 mM sodium citrate pH 4.5, H2O2 co-substrate held constant, room temperature
purified protein [1] = substrate: CCn1c(=NN=c2sc3cc(S(=O)(=O)O)ccc3n2CC)sc2cc(S(=O)(=O)O)ccc21; assay: purified protein; type: biochemical, Xylaria grammica; details: apparent, 50 mM sodium citrate pH 4.5, H2O2 co-substrate held constant, room temperature
purified protein [2] = substrate: COc1cccc(OC)c1O; assay: purified protein; type: biochemical, Xylaria grammica; details: apparent, 50 mM sodium citrate pH 4.5, H2O2 co-substrate held constant, room temperature

Row | Km (XgrDyP) | Molecule | Km (purified protein [1]) | kcat (purified protein [1]) | kcat/Km (purified protein [1]) | Km (purified protein [2]) | kcat (purified protein [2]) | kcat/Km (purified protein [2])
1 | 41 µM | Nc1c(S(=O)(=O)O)cc(Nc2ccc(S(=O)(=O)O)c(Nc3nc(Cl)nc(Nc4cccc(S(=O)(=O)O)c4)n3)c2)c2c1C(=O)c1ccccc1C2=O [RBlue5] | – | – | – | – | – | –
2 | – | XgrDyP (Xylaria grammica) (protein, wild-type, natively secreted, purified from Xylaria grammica culture liquid (AEX, SEC, MonoQ); 49 kDa on SDS-PAGE; heme protein) MSTPLDINNVQGDILEGLGKKHELYYFFRIKAGQVSLFREHLGAFIPLVTTTVEAKKFHQTIKDGKKAAAEQGIPFPIIENSGVNISFSQKGLAALEITDSIGDDVFEKGMVADADGLGDDLSDWDADFKKEIHGVVIITANSLLVLEGQLERIKRIFHVGQRNATIEKVTQLSGQTRPGPEKGHEHFGFNDGLSQPAVQGVDAGVISEPGENPVRQGVILVGREGDDGVVIPGQPIQPVTRPSWALDGSFLAFRYLKQLVPEFDAFLEANALKVPRIRAPGDPTGAELLGARLVGRWKSGAPIDLTPLRDDPALAKREDFRFDTRNQERCPFAAHIRKTNPRSDLDAFGGTEIRRIIRRGIAFGPEVTPEEKRAKRSSNDQRLERGLLFTCYQSNLGNGFHFMQESWANTRTFPPTPAAVPAVPVPGIDPIIGVGNPRQMVGASPDDAAANQELNFSAKWVIPRGGEYFFSPSISALEHTFAALRRPGHSEL | 41 µM | 12 s⁻¹ | 287000 M⁻¹ s⁻¹ | 12 µM | 29 s⁻¹ | 2.5e+06 M⁻¹ s⁻¹
